# Assay results from IntAct's records for PubMed 31695625.
# B1: Solute carrier family 2, facilitated glucose transporter member 9 (Homo sapiens), Q9NRM0-2 (parent)
# chain: MKLSKKDRGEDEESDSAKKKLDWSCSLLVASLAGAFGSSFLYGYNLSVVNAPTPYIKAFYNESWERRHGRPIDPDTLTLLWSVTVSIFAIGGLVGTLIVKMIGKVLGRKHTLLANNGFAISAALLMACSLQAGAFEMLIVGRFIMGIDGGVALSVLPMYLSEISPKEIRGSLGQVTAIFICIGVFTGQLLGLPELLGKESTWPYLFGVIVVPAVVQLLSLPFLPDSPRYLLLEKHNEARAVKAFQTFLGKADVSQEVEEVLAESRVQRSIRLVSVLELLRAPYVRWQVVTVIVTMACYQLCGLNAIWFYTNSIFGKAGIPPAKIPYVTLSTGGIETLAAVFSGLVIEHLGRRPLLIGGFGLMGLFFGTLTITLTLQDHAPWVPYLSIVGILAIIASFCSGPGGIPFILTGEFFQQSQRPAAFIIAGTVNWLSNFAVGLLFPFIQKSLDTYCFLVFATICITGAIYLYFVLPETKNRTYAEISQAFSKRNKAYPPEEKIDSAVTDGKINGRP
# B2: Solute carrier family 2, facilitated glucose transporter member 9 (Homo sapiens), Q9NRM0-1 (parent)
# chain: MARKQNRNSKELGLVPLTDDTSHAGPPGPGRALLECDHLRSGVPGGRRRKDWSCSLLVASLAGAFGSSFLYGYNLSVVNAPTPYIKAFYNESWERRHGRPIDPDTLTLLWSVTVSIFAIGGLVGTLIVKMIGKVLGRKHTLLANNGFAISAALLMACSLQAGAFEMLIVGRFIMGIDGGVALSVLPMYLSEISPKEIRGSLGQVTAIFICIGVFTGQLLGLPELLGKESTWPYLFGVIVVPAVVQLLSLPFLPDSPRYLLLEKHNEARAVKAFQTFLGKADVSQEVEEVLAESRVQRSIRLVSVLELLRAPYVRWQVVTVIVTMACYQLCGLNAIWFYTNSIFGKAGIPPAKIPYVTLSTGGIETLAAVFSGLVIEHLGRRPLLIGGFGLMGLFFGTLTITLTLQDHAPWVPYLSIVGILAIIASFCSGPGGIPFILTGEFFQQSQRPAAFIIAGTVNWLSNFAVGLLFPFIQKSLDTYCFLVFATICITGAIYLYFVLPETKNRTYAEISQAFSKRNKAYPPEEKIDSAVTDGKINGRP
# Variants of: B1
# Details: with itm2b_human ITM2B
row,effect of a mutation on the interaction,Variant
1,with no effect,N61Q

# Variants of: B1
# Details: with itm2b_human ITM2B
# Remark: another data set of the same source
row,effect of a mutation on the interaction,Variant
1,disrupting interaction strength,N61Q

# Variants of: B2
# Details: with itm2b_human ITM2B
row,effect of a mutation on the interaction,Variant
1,with no effect,N90Q
